Measurements taken from patent US20250277006A1.

Target: adalimumab
Test: SPR; ligand on CM5; max response at 800 nM, rounded to 50 Ru

ZGE0214 (domain E with A/R/I at positions 33/40/51) (designed binder)
max response (Ru): 4100 Ru

ZGE0234 (domain E with A/G/R at positions 33/40/51) (designed binder)
max response (Ru): 2950 Ru
